Source: article PMC2248716
Where two headings read alike, the source gives them in different places.

How the values were obtained:
Assay in all cases: FRET or BRET
[1] = target: NaV1.4-EYFP (UniProt P15390)
[2] = target: NaV1.4-EYFP (UniProt P15390); remark: listed apart in the source
[3] = target: NaV1.4-EYFP (UniProt P15390); remark: listed apart in the source
[4] = target: NaV1.4_(IQ/AA)-EYFP (UniProt P15390)
[5] = target: NaV1.4-EYFP (UniProt P15390); remark: listed apart in the source
[6] = target: NaV1.4-EYFP (UniProt P15390); remark: listed apart in the source

FRET efficiency [1]: 10.3%
FRET ratio [1]: 2
FRET efficiency [2]: 9.9%
FRET efficiency [3]: 25.4%
FRET ratio [4]: < 1
FRET efficiency [5]: 8.2%
FRET ratio [5]: > 1
FRET efficiency [6]: 22.7%
Substance: ECFP-CaM (from UniProt P0DP23 1-149) (natural protein)
